From PMC3904827, “Segmental Helical Motions and Dynamical Asymmetry Modulate Histidine Kinase Autophosphorylation” (PLoS Biology, 2014) come the findings set out here.

Series [1] concerns the molecule itself. Briefly: crystal structure; dimers to tetramer (dimer of dimers) as seen in the hexagonal and monoclinic crystal forms; vapor diffusion at 18°C, protein at ~15 mg/ml.
Series [2] concerns the molecule itself. The experiment in a line: crystal structure; monomers to homodimer; vapor diffusion at 18°C, protein at ~15 mg/ml, in complex with nucleotides; five crystal forms (C222_(1), P3_(1)21, P6_(1)22, C2, I2).

B1: full cytoplasmic region of E. coli CpxA (CpxAHDC), wild type (domain or fragment, Escherichia coli, UniProt P0AE82 188-457, looked up)
chain: KPARKLKNAADEVAQGNLRQHPELEAGPQEFLAAGASFNQMVTALERMMTSQQRLLSDISHELRTPLTRLQLGTALLRRRSGESKELERIETEAQRLDSMINDLLVMSRNQQKNALVSETIKANQLWSEVLDNAAFEAEQMGKSLTVNFPPGPWPLYGNPNALESALENIVRNALRYSHTKIEVGFAVDKDGITITVDDDGPGVSPEDREQIFRPFYRTDEARDRESGGTGLGLAIVETAIQQHRGWVKAEDSPLGGLRLVIWLPLYKRS
notes: Sensor histidine kinase CpxA, Escherichia coli, full cytoplasmic region: HAMP domain (residues 188-237) and DHp and CA domains (residues 238-457); The trigonal (4BIV) and hexagonal (4CB0) crystals were grown from seleno-methionyl protein; Crystallised with ADP or ATP; also called CpxA transmitter core; wild-type CpxAHDC; source: SeMet protein from E. coli B834 (DE3)
With B1, the stoichiometry N (commonly the number of molecules, sites or subunits per partner or assembly) was determined as 4 in series [1] and 2 in series [2].

B2: point mutant CpxA_(HDC_M228V) of the full cytoplasmic region of E. coli CpxA (domain or fragment, Escherichia coli, UniProt P0AE82 188-457, looked up)
chain: KPARKLKNAADEVAQGNLRQHPELEAGPQEFLAAGASFNQVVTALERMMTSQQRLLSDISHELRTPLTRLQLGTALLRRRSGESKELERIETEAQRLDSMINDLLVMSRNQQKNALVSETIKANQLWSEVLDNAAFEAEQMGKSLTVNFPPGPWPLYGNPNALESALENIVRNALRYSHTKIEVGFAVDKDGITITVDDDGPGVSPEDREQIFRPFYRTDEARDRESGGTGLGLAIVETAIQQHRGWVKAEDSPLGGLRLVIWLPLYKRS
notes: Sensor histidine kinase CpxA, Escherichia coli, full cytoplasmic region (HAMP 188-237, DHp and CA 238-457) with the point mutation Met228-Val in the HAMP domain; Probably made like wild-type CpxAHDC (His-tagged, pET28a+, E. coli, IMAC and gel filtration), but the methods describe only the CpxAHDC construct; Crystallised with AMPPNP or ADP; also called CpxAHDC Met228-Val; source: purified protein
In the case of B2, the “stoichiometry N” value in series [1] stood at 4; in series [2] it was 2.
